# ± gives the standard deviation of the averaged measurements.
# Tested on: Saccharomyces cerevisiae
# Assay: protein stability index of tFT-peptide fusion (C-terminal peptide) (PSI (0-1 scale)); higher = more stable (slower turnover)
# Settings: genetic background: wild type; temperature: 30 C
# 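Also: PSI is a weighted mean of sequencing reads over stability bins, variants kept only with over 10 reads, mCherry proximal and sfGFP distal, peptide attached via GGGS linker.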
row,Sequence,protein stability index
1,VVVIGVWGGGVG,0.612 ± 0.019
2,PPTPRLPPPRLP,0.67 ± 0.045
3,TSPPSLLFAMAR,0.693 ± 0.038
4,PRSAPPRRPPTP,0.753 ± 0.075
5,DSAVTPPTTCLP,0.719 ± 0.028
6,FFSSHPCYFSTF,0.69 ± 0.072
7,PPFSHLPYLLPP,0.685 ± 0.015
8,AGGLCEGGWRGR,0.6885 ± 0.0035
9,PSAPPLSHPAPW,0.675 ± 0.047
10,PPPAPPCRLMSP,0.719 ± 0.059
11,GRLKSTSTIRRF,0.722 ± 0.021
12,LTYFCTLPATLK,0.663 ± 0.022
13,LLFFSLFFSPLP,0.642 ± 0.041
14,IGSEGGKNGRRK,0.616 ± 0.044
15,DTLFNRFLHTSI,0.69 ± 0.046
16,PSLPFPPTPPPC,0.686 ± 0.11
17,INWGVRGTLSSE,0.706 ± 0.04
18,PLPSPLLPRSVL,0.705 ± 0.045
19,SKTIRDTYIFKR,0.816 ± 0.15
20,ALHHPPLPHPRS,0.663 ± 0.084
21,PPSDRPTVPPPP,0.709 ± 0.017
22,PVAPKPTGAKTP,0.661 ± 0.06
23,RHLALSRPTPFP,0.703 ± 0.04
24,KLTKAQPRMPLL,0.702 ± 0.027
25,VYSSVPGRIAID,0.708 ± 0.008
26,RFPVLRFPASFL,0.669 ± 0.048

row,Sequence,protein stability index
1,NSIHRTRPKKII,0.641 ± 0.0048
2,HPPSSLLSPPSP,0.702 ± 0.042
3,GGGGGGRAGVWG,0.687 ± 0.028
4,QNEVWDACVGRC,0.702 ± 0.017
5,APYPVSRGLLGF,0.656 ± 0.057
6,FPPCSPPPPAPL,0.625 ± 0.05
7,TSTRTPTHRGPL,0.762 ± 0.014
8,RLGGGGVGGAGV,0.699 ± 0.019
9,TRRVPNSRTGTI,0.74 ± 0.072
10,GRKRWVRLSLAC,0.563 ± 0.028
11,PGLAGGASQEGR,0.58 ± 0.085
12,KDGMATKCIAYT,0.657 ± 0.011
13,FALFQSFCFFCF,0.564 ± 0.061
14,PPPLPLPPPLPP,0.533 ± 0.046
15,KPKKKRTKQRKR,0.705 ± 0.08
16,GTSDPRGSGPAG,0.715 ± 0.015
17,HVKLLSSNGPLV,0.671 ± 0.031
18,PRPPYPRPPPPP,0.725 ± 0.074
19,PPPPPPGSPTRP,0.788 ± 0.075
20,HPSRPPRASPPS,0.693 ± 0.03
21,PLPSPSLLLHCP,0.592 ± 0.0013
22,ATALETWGGAQG,0.691 ± 0.015
23,AVVGCGGGWWWA,0.715 ± 0.13
24,GGGVRLMSIHRG,0.662 ± 0.012
25,GGGAPADSGPGG,0.628 ± 0.036
26,WQGSASCSVVLV,0.55 ± 0.043

row,Sequence,protein stability index
1,LFSSSLISPLFA,0.582 ± 0.025
2,RPFHLLPPPPPL,0.73 ± 0.019
3,EAEKTERCVIKG,0.645 ± 0.027
4,LTSSLSLSFPPL,0.749 ± 0.039
5,SVQWPITIEVWK,0.631 ± 0.014
6,PPSYYPPPYLAF,0.653 ± 0.034
7,KRREEKKRKRVE,0.648 ± 0.094
8,GGCVGVLGGWGL,0.694 ± 0.0083
9,PHLLRRPPTQRH,0.633 ± 0.049
10,RRDRFSLRGFTE,0.701 ± 0.013
11,SSPSSFLTLLFI,0.621 ± 0.069
12,AYPWWLILSDAI,0.759 ± 0.016
13,GGGGAGGGGGRV,0.676 ± 0.038
14,FPVGVRLNQNET,0.718 ± 0.017
15,WVTCALVVQSRF,0.693 ± 0.0073
16,VPLIFSTFVSIS,0.54 ± 0.009
17,PESGPVRLRTPP,0.624 ± 0.029
18,ALIFPLPASSTF,0.609 ± 0.038
19,RGEVGKVRGPGT,0.71 ± 0.052
20,RHSHSLSITHLP,0.675 ± 0.091
21,FLLLSPARLVLL,0.5529 ± 0.0021
22,PPGPVVPPPPPD,0.664 ± 0.027
23,TECGKVGGGGEA,0.689 ± 0.062
24,PARSAGPLNARS,0.758 ± 0.013
25,SPPPRSPRPFPG,0.6757 ± 0.0012
26,HQSISLSGAMLT,0.65 ± 0.0088

row,Sequence,protein stability index
1,PSPSFPPPPLSR,0.721 ± 0.073
2,LACMWICPHIQA,0.606 ± 0.023
3,RAPDFYPTHPLA,0.701 ± 0.057
4,FGGGGGGVGLAV,0.65 ± 0.033
5,VWHWGRSLYLAA,0.525 ± 0.021
6,GFLCDTVRLGCA,0.702 ± 0.058
7,SVLFDIGFSCRF,0.808 ± 0.026
8,EWQWGWGGVRRD,0.765 ± 0.032
9,ASTFADASSALV,0.71 ± 0.014
10,GCDELGGRRFGR,0.7207 ± 0.0051
11,RGPGSNGSLPWF,0.689 ± 0.056
12,FLGGWVCGWPQF,0.772 ± 0.15
13,TRTRARAIQTAT,0.6462 ± 0.0054
14,IRLMTTIITYMI,0.44 ± 0.13
15,MTMGSIGNFDQG,0.611 ± 0.073
16,RKNEKKKKKNKK,0.6645 ± 0.0024
17,TGGESEPRDTIQ,0.701 ± 0.017
18,AGRRASGRVGSG,0.728 ± 0.018
19,VPACFSYFLASC,0.68 ± 0.04
20,GPGGGGGLWVRV,0.617 ± 0.016
21,PPAASSFRLSSC,0.751 ± 0.1
22,RRRPNSSMYRVS,0.658 ± 0.015
23,WFRLRFASGRRS,0.682 ± 0.054

# From the supplement of paper PMC10724198
